The RNAGym collection of RNA variant scans (doi:10.1093/molbev/msab373)

B1: Azoarcus group I ribozyme (parent)
chain: GUGCCUUGCGCCGGGAAACCACGCAAGGGAUGGUGUCAAAUUCGGCGAAACCUAAGCGCCCGCCCGGGCGUAUGGCAACGCCGAGCCAAGCUUCGGCGCCUGCGCCGAUGAAGGUGUAGAGACUAGACGGCACCCACCUAAGGCAAACGCUAUGGUGAAGGCAUAGUCCAGGGAGUGGCGAAAGUCACACAAACCGG

Variants of: B1
Assay: reverse-splicing fitness (ratio to wild type); higher = more active; in vitro selection; Mg2+ level not given
Method in brief: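 An in vitro group I ribozyme library with randomized positions was T7-transcribed and gel-purified. In triplicate, 10 pmol RNA in EPPS pH 7.5 was reacted with 50 pmoles of a 30-nt RNA substrate for 1 h at 37 °C across several added MgCl2 levels (1–48 mM), then stopped with EDTA. Products were reverse transcribed from a substrate-complementary primer, PCR-amplified and sequenced (HiSeq 4000). Fitness is a variant's read proportion after selection over that before, normalised to wild type.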
In the case of C82U A111U A120U A145G C150U C169A U176A, the reverse-splicing fitness is reported as 0.00543.
C82U A111U A120U A145U C169A U176A gave a reverse-splicing fitness of 0.00233.
In the case of C82U A111U A120U A145U C169A U176C, the reverse-splicing fitness is reported as 0.00301.
Variant C82U A111U A120U A145U C169A U176G has a reverse-splicing fitness of 0.0017.
C82U A111U A145U C150G C169G gave a reverse-splicing fitness of 0.0071.
For C82U A111U A145U C150G C169A, the reverse-splicing fitness was 0.00958.
In the case of C82U A111U A145C C150G C169U U176C, the reverse-splicing fitness is reported as 0.00969.
For C82U A111U A145C C150G C169U U176A, the reverse-splicing fitness was 0.00804.
C82U A111U A145C C150G C169U U176G showed a reverse-splicing fitness of 0.00515.
With C82U A111U A120U A145U C150A C169U U176C the reverse-splicing fitness was 0.00234.
Variant C82U A111U A120U A145U C150A C169U U176G has a reverse-splicing fitness of 0.00195.
In the case of C82U A111U A120U A145U C150A C169U U176A, the reverse-splicing fitness is reported as 0.00233.
Variant C82U A111U A145C C150U C169U has a reverse-splicing fitness of 0.0089.
Variant C82U A111U A145C C150U C169G has a reverse-splicing fitness of 0.00801.
C82U A111U A145C C150U C169A showed a reverse-splicing fitness of 0.00776.
With C82U A111U A120U C150A C169U U176A the reverse-splicing fitness was 0.0059.
Work on C82U A111U A120U C150A C169U U176G yielded a reverse-splicing fitness of 0.00301.
With C82U A111U A120U C150A C169U U176C the reverse-splicing fitness was 0.00379.
C82U A111U A120U C150U U176A gave a reverse-splicing fitness of 0.00668.
For C82U A111U A120U C150U U176G, the reverse-splicing fitness was 0.00363.
For C82U A111U A120U C150U U176C, the reverse-splicing fitness was 0.0088.
For C82U A111U A145C C169A U176A, the reverse-splicing fitness was 0.00952.
C82U A111U A145C C169A U176G showed a reverse-splicing fitness of 0.00457.
In the case of C82U A111U A145C C169A U176C, the reverse-splicing fitness is reported as 0.00614.
Work on C82U A111U A145G C150A C169U U176A yielded a reverse-splicing fitness of 0.016.
With C82U A111U A145G C150A C169U U176C the reverse-splicing fitness was 0.0133.
C82U A111U A145G C150A C169U U176G gave a reverse-splicing fitness of 0.00658.
Variant C82U A111U A145C C169G U176G has a reverse-splicing fitness of 0.00539.
C82U A111U A145C C169G U176A gave a reverse-splicing fitness of 0.0234.
With C82U A111U A145C C169G U176C the reverse-splicing fitness was 0.0126.
With C82U A111U A120U C150G C169G U176A the reverse-splicing fitness was 0.00411.
C82U A111U A120U C150G C169G U176G showed a reverse-splicing fitness of 0.00254.
Variant C82U A111U A120U C150G C169G U176C has a reverse-splicing fitness of 0.00263.
For C82U A111U A145C C150A U176A, the reverse-splicing fitness was 0.0116.
Work on C82U A111U A145C C150A U176G yielded a reverse-splicing fitness of 0.00625.
C82U A111U A145C C150A U176C gave a reverse-splicing fitness of 0.013.
Variant C82U A111U A120U C150A C169U has a reverse-splicing fitness of 0.00428.
With C82U A111U A120U C150A C169A the reverse-splicing fitness was 0.00469.
C82U A111U A120U C150A C169G showed a reverse-splicing fitness of 0.0044.
With C82U A111U A120U A145G C150G C169U U176G the reverse-splicing fitness was 0.00345.
Variant C82U A111U A120U A145G C150G C169U U176A has a reverse-splicing fitness of 0.00611.
C82U A111U A120U A145G C150G C169U U176C gave a reverse-splicing fitness of 0.0058.
Variant C82U A111U A145C C150A C169U U176A has a reverse-splicing fitness of 0.0138.
With C82U A111U A145C C150A C169U U176G the reverse-splicing fitness was 0.00574.
C82U A111U A145C C150A C169U U176C showed a reverse-splicing fitness of 0.00882.
C82U A111U A145U C150A C169A U176A showed a reverse-splicing fitness of 0.0123.
C82U A111U A145U C150A C169A U176C gave a reverse-splicing fitness of 0.00929.
With C82U A111U A145U C150A C169A U176G the reverse-splicing fitness was 0.00735.
With C82U A111U A120U A145G C150A C169U U176C the reverse-splicing fitness was 0.00345.
Work on C82U A111U A120U A145G C150A C169U U176A yielded a reverse-splicing fitness of 0.00439.
In the case of C82U A111U A120U A145G C150A C169U U176G, the reverse-splicing fitness is reported as 0.00228.
In the case of C82U A111U A120U C169A U176G, the reverse-splicing fitness is reported as 0.00193.
Work on C82U A111U A120U C169A U176A yielded a reverse-splicing fitness of 0.00285.
With C82U A111U A120U C169A U176C the reverse-splicing fitness was 0.00317.
C82U A111U A145C C169U U176G showed a reverse-splicing fitness of 0.00463.
For C82U A111U A145C C169U U176C, the reverse-splicing fitness was 0.0103.
Variant C82U A111U A145C C169U U176A has a reverse-splicing fitness of 0.0134.
C82U A111U A120U A145G C150G C169A showed a reverse-splicing fitness of 0.00819.
Work on C82U A111U A120U A145G C150G C169G yielded a reverse-splicing fitness of 0.00647.
With C82U A111U A120U A145G C150G C169U the reverse-splicing fitness was 0.00706.
C82U A111U A120U A145U C150U C169G U176C showed a reverse-splicing fitness of 0.00317.
For C82U A111U A120U A145U C150U C169G U176G, the reverse-splicing fitness was 0.00202.
In the case of C82U A111U A120U A145U C150U C169G U176A, the reverse-splicing fitness is reported as 0.00276.
In the case of C82U A111U A120U A145G C150A U176C, the reverse-splicing fitness is reported as 0.00627.
C82U A111U A120U A145G C150A U176G gave a reverse-splicing fitness of 0.00271.
Work on C82U A111U A120U A145G C150A U176A yielded a reverse-splicing fitness of 0.00691.
For C82U A111U A120U A145G C150U C169A, the reverse-splicing fitness was 0.00562.
C82U A111U A120U A145G C150U C169U gave a reverse-splicing fitness of 0.00435.
With C82U A111U A120U A145G C150U C169G the reverse-splicing fitness was 0.0051.
C82U A111U A120U A145U C150G U176C gave a reverse-splicing fitness of 0.0047.
For C82U A111U A120U A145U C150G U176A, the reverse-splicing fitness was 0.00312.
C82U A111U A120U A145U C150G U176G gave a reverse-splicing fitness of 0.00226.
In the case of C82U A111U A145G C169U U176G, the reverse-splicing fitness is reported as 0.0055.
Variant C82U A111U A145G C169U U176C has a reverse-splicing fitness of 0.0145.
With C82U A111U A145G C169U U176A the reverse-splicing fitness was 0.0135.
For C82U A111U A145C C169G, the reverse-splicing fitness was 0.0091.
In the case of C82U A111U A145C C169A, the reverse-splicing fitness is reported as 0.00671.
C82U A111U A145C C169U showed a reverse-splicing fitness of 0.0102.
Variant C82U A111U A145G C150U C169A U176A has a reverse-splicing fitness of 0.0156.
Variant C82U A111U A145G C150U C169A U176C has a reverse-splicing fitness of 0.0159.
In the case of C82U A111U A145G C150U C169A U176G, the reverse-splicing fitness is reported as 0.00684.
With C82U A111U A120U A145G U176A the reverse-splicing fitness was 0.00732.
C82U A111U A120U A145G U176C gave a reverse-splicing fitness of 0.0112.
C82U A111U A120U A145G U176G showed a reverse-splicing fitness of 0.00331.
